Publication PMC4454188

Experiments:
[1] = molecular target: Strep-3xFLAG-DotJ (E. coli) (L. pneumophila); assay: SEC
[2] = molecular target: His-TraM (R64 TraM, full length) (plasmid R64); assay: SEC-MALS
[3] = molecular target: DotIC, C-terminal periplasmic domain of DotI (residues 73-212) (L. pneumophila); assay: SEC-MALS
[4] = molecular target: DotIC, C-terminal periplasmic domain of DotI (residues 73-212) (L. pneumophila); assay: crystal structure

With “DotI (produced in E. coli with Strep-3xFLAG-DotJ) (natural protein)” the stoichiometry N (DotI per DotJ) [1] was 1.87.
Work on “His-TraM (R64 TraM, full length) (natural protein)” yielded a stoichiometry N [2] of 6.
In the case of “DotIC, C-terminal periplasmic domain of DotI (residues 73-212) (domain or fragment)”, the stoichiometry N [3] is reported as 16 and the stoichiometry N (subunits in a ring (two rings stacked)) [4] is reported as 8.
